Experimental data reported in PMC7423924, “A fluorogenic cyclic peptide for imaging and quantification of drug-induced apoptosis” (Nature Communications, 2020).
Where “and” joins values, the source holds several entries; their conditions need not be identical. Equal values may be shown once.

Tests used:
[1] = test system: primary airway epithelial cells; assay: Flow cytometry staining before and after induction of apoptosis, epithelial; assay type: cell-based, human; conditions: single replicates, listed as Ann V
Method: (§1) Fig. 2 Apo-15 binds to apoptotic cells of different origin in multiple environments. a Representative fluorescence confocal microscopy images (from three independent experiments) human apoptotic (yellow arrows) and viable (white arrows) cells from different lineages: BL-2 (lymphoid), neutrophils (myeloid), and primary airway epithelial cells (epithelial). Cells were incubated with Apo-15 (100 nM, green), AF647-Annexin V (5 nM, red), and Hoechst 33342 (7 μM, blue) for 10 min and imaged under a fluorescence confocal microscope (λexc.: 405, 488, 633 nm: λem.: 450, 525, 670 nm). Scale bars: 10 µm. b Divalent cation-independent binding of Apo-15 to apoptotic cells of different origin (top plots: lymphoid cells, bottom plots: myeloid cells). Mixtures of apoptotic (highlighted in green dots) and viable cells (highlighted in black dots) were stained with AF647-Annexin V (25 nM) and Apo-15 (100 nM) in the presence of 2 mM CaCl2 (left) or 2.5 mM EDTA (right). Representative histograms showing Apo-15 binding (x-axis) vs AF647-Annexin V binding (y-axis) acquired on 5L LSR flow cytometer (n = 5). c Cells were sorted on their Apo-15 positivity (green populations in panel b) or negativity (black populations in panel b). Gating strategy in Supplementary Fig. 7. Morphological analysis (four independent images from two independent experiments) of cytocentrifuge preparations of Apo-15-positive and Apo-15-negative cells under brightfield microscopy (scale bar: 10 µm). d Quantification of fluorescence staining of neutrophils (myeloid, n ≥ 5), BL-2 cells (lymphoid, n ≥ 3) and primary airway epithelial cells (epithelial, n = 5) before and after induction of apoptosis and upon treatment with Apo-15 and AF647-Annexin V. Data acquired on 5 L LSR flow cytometer and presented as mean values ± SEM. P values obtained from two-tailed t tests. Source data (in d) are provided as a Source data file. […]
(§2) All apopeptides were reconstituted at 5 mM in DMSO. […] Fluorescence emission was measured on a 5 L LSR flow cytometer (BD). […]

BL-2 cells (lymphoid) = assay: Flow cytometry staining before and after induction of apoptosis, BL-2; assay type: cell-based, human; conditions: single replicates, listed as Ann V
Method: as §1, §2

B1: Annexin V: fluorescently-labeled (AF647) annexin V, PS-binding protein (protein, UniProt P08758 2-320, looked up)
Annexin A5: AQVLRGTVTDFPGFDERADAETLRKAMKGLGTDEESILTLLTSRSNAQRQEISAAFKTLFGRDLLDDLKSELTGKFEKLIVALMKPSRLYDAYELKHALKGAGTNEKVLTEIIASRTPEELRAIKQVYEEEYGSSLEDDVVGDTSGYYQRMLVVLLQANRDPDAGIDEAQVEQDAQALFQAGELKWGTDEEKFITIFGTRSVSHLRKVFDKYMTISGFQIEETIDRETSGNLEQLLLAVVKSIRSIPAYLAETLYYAMKGAGTDDHTLIRVMVSRSEIDLFNIRKEFRKNFATSLYSMIKGDTSGDYKKALLLLCGEDD
modifications: AF647 label
What does the source list for B1?
Stained cells (flow cytometry) ([1]; epithelial cells untreated (UNT)): 7.0% and 6.2% and 7.1% and 5.9% and 13.0%; Stained cells (flow cytometry) ([1]; epithelial cells, staurosporine (ST, 1 µM 6 h)): 14.1% and 17.9% and 25.5% and 29.1% and 22.0%; Stained cells (flow cytometry) ([1]; epithelial cells, staurosporine, EDTA): 0.024% and 0.1% and 0.37% and 3.0% and 2.0%; Stained cells (flow cytometry) (BL-2 cells (lymphoid); BL-2 0h UV): 25.4% and 28.9% and 10.3%; Stained cells (flow cytometry) (BL-2 cells (lymphoid); BL-2 3h UV, EDTA): 1.4% and 1.1% and 2.6%; Stained cells (flow cytometry) (BL-2 cells (lymphoid); BL-2 3h UV): 86.9% and 45.3% and 46.5% and 34.9%
